Source: the nanobody polyreactivity screen of Harvey et al. (2022)

Test: yeast display, Sf9 membrane polyspecificity reagent, FACS + sequencing; frameworks hold sequencing errors
Outline: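 In a synthetic yeast display library (Saccharomyces cerevisiae BJ5465), nanobody expression was induced with galactose for 36–48 hours. FACS gates were set low and high (top ~1%) using anti-HA fluorescence for expression and streptavidin fluorescence for binding of the Sf9 membrane reagent. Each polyreactivity label is drawn from the gate of origin.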

Sequence	polyreactivity (PSR sort gate)
QVQLVESGGGLVQAGGSLRLSCAASGRIFHGNAMGWYRPAPGKERELVAAITSGGRTFYADSVKGRFTISRDNAKNTVYLQMNRLKPEDTAVYYCNAPSIAGYAEYNSHDYWGQGTQVTVSS	high polyreactivity
QVQLVESGGGLVQAGGSLRLSCAASGRIFHGNAMGWYRQAPGKEREMVAAITSGGRTFYADSVKGRFTISRDNAKNTVYLQMNSLIPEDTAVFYCNAPSIAGYAEYNSHDYWGQGTQVTVSS	high polyreactivity
QVQLVESGGGLVQAGGSLRLSCAASGRIFHGYAMGWYRQAPGKERELVGAINSSGGSTYYADSVKGRFTISRDNAKNTVYLQMNSLKPQDTAVYYCAADWVVSGNNPTVDTYFWYEYWGQGTQVTVSS	low polyreactivity
QVQLVESGGGLVQAGGSLRLSCAASGRIFHIYAMGWYRQAPGKERELVAAISSDGSTYYADSVKGRFTISRDNAKNTVYLQMNSLKPEDTAVYYCAVESPQGRQCYEYWGQGTQVTVSS	low polyreactivity
QVQLVESGGGLVQAGGSLRLSCAASGRIFHLYAMGWYRQAPGKERELVATITYDGGSTYYADSVKGRFTISRDNAKDTVYLQMNSLKPEDTAVYYCASPSPHVGLKWEYDYWGQGTQVTVSS	low polyreactivity
QVQLVESGGGLVQAGGSLRLSCAASGRIFHNNAMGWYIQAPGKERELVAAISTGGSTNYADSVKGRFTISRDNAKNTVYLQMNSLKPEDTAVYYCAADHPVTYPTSKFDYWGQGTQVTVSS	low polyreactivity
QVQLVESGGGLVQAGGSLRLSCAASGRIFHSYAMGWYRQAPGKERELVAAISSGGNTYYADSVKGRFTISRDNAKNTVYLQMNSLKREDTAVYYCARDWDFLYDGFHSDSYEYWGQGTQVTVSS	low polyreactivity
QVQLVESGGGLVQAGGSLRLSCAASGRIFHYAIGWYRQAPGKESELVAGISKRGGSTYYADSVKGRFTISRDNAKNTVYLQMNSLKPEDTAVYYCSKEHYWTLNGLTSYYWGQGSQVTVSS	high polyreactivity
QVQLVESGGGLVQAGGSLRLSCAASGRIFIIYAMGWYRQAPGKERELVAAITSGGGSTRYADSVKGRFPISRDNAKNTVYLQMNSLKPEDTAVYYCAAARITRGRRYDYWGQGTQVTVSS	high polyreactivity
QVQLVESGGGLVQAGGSLRLSCAASGRIFIVNAMGWYRQAPGKERELVAAISYRGGSTYYADSVKGRFTISRDNAKNTVYLQMNSLKPEDTAVYYCNTDGYIYRYRFDYWGQGTQVTVSS	low polyreactivity
QVQLVESGGGLVQAGGSLRLSCAASGRIFIWYAMGWYRQAPGKERELVAAIDRSGASTYYADSVKGRFTISRDNAKNTVYLQMNSLKPEDTAVYYCAARRDVLWFQYPYGYWGQGTQVTVSS	low polyreactivity
QVQLVESGGGLVQAGGSLRLSCAASGRIFIWYTMGWYRQAPGNERELVASITGGGGSTYYADSVKGRFTISRDNAKNTVYFQMNSLKPEETAVYDCNAVYRRRYDYWGQGTQVTVSS	high polyreactivity
QVQLVESGGGLVQAGGSLRLSCAASGRIFKANDMGWYRQAPGKERELVAITSSDSTNYADSVKGRFTISRDNAKNTVYLQMNSLKPEDTAVYYCAALSYYYSDRMDYWGQGTQVTVSS	low polyreactivity
QVQLVESGGGLVQAGGSLRLSCAASGRIFKDTAMGWYRQAPGKDRELVAGITSIGDNTYYADSVKGRFTISRDNAKNTVYLQMHSLKPEDSAVYDCNALYPYVNGTVPRTTGEYDYWGQGTQVTVSS	low polyreactivity
QVQLVESGGGLVQAGGSLRLSCAASGRIFKFNAMGWYRPAPGKERELVAAITTGGGSTYYADSVKGRFTISRDNAKNTVYLQMNSLKPEDSAVYYCATDRRHVYSSRRYYYWVQGTQVTVSS	high polyreactivity
QVQLVESGGGLVQAGGSLRLSCAASGRIFKFNAMGWYRQAPGKERELVAATWSGGRTSYADSVKGRFTISRDNAKNTVYLQMNSLKPEDTAVYYCNAADWIVVQYDYWGQGTQVTVSS	low polyreactivity
QVQLVESGGGLVQAGGSLRLSCAASGRIFKFNAMGWYRQAPGKVRELVAATWSGGRTSYADSVKGRFTISRDNAKNTVYLQMNSLKPEDTAVYYCNAADWIDVQYDYGGQGTQVTVSS	low polyreactivity
QVQLVESGGGLVQAGGSLRLSCAASGRIFKGYAMGWYRQAPGKERELVAAITWRGGTTYYADSVKGRFTISRDNAKNTVYLQMNSLKPEDTAVYYCAAVTRRYVLSTFYYWGQGTQVTVSS	high polyreactivity
QVQLVESGGGLVQAGGSLRLSCAASGRIFKGYVMGWYRQAPGKERELVAAISKSGGRTYYADPVKGRFTISRDNAKNTVYLQMNSLKPEDTAVYYCNAVGVVTYSFYYWGQGTQVTVSS	high polyreactivity
QVQLVESGGGLVQAGGSLRLSCAASGRIFKHYAMGWSRQAPGKERELVAAITNGGRTNYADSVKGRFTISRDNAKNTVYLQMNSLKPADTAVYYGNSESSPPYSITKFDYWGQGTQVTVSS	low polyreactivity
QVQLVESGGGLVQAGGSLRLSCAASGRIFKINAMGWSRQAPGKERDLVATISYSAGRTYYADSEKGRFTISRDSAKNTVYLQMNSLKPEDTAVYYCAARISSYWPYSLLDYWGQGTQVTVSS	high polyreactivity
QVQLVESGGGLVQAGGSLRLSCAASGRIFKIYSMGWYRQAPGKERELVAAISYRGTSTYYADSVKGRFTISRDNAKNTVYLQMNSLKPEDTAVYYCARRDTYTRYYWGQGTQVTVSS	high polyreactivity

Sequence	polyreactivity (PSR sort gate)
QVQLVESGGGLVQAGGSLRLSCAASGRIFKLYAMGWYRQAPGKERELVAAISTSGGSTYYADSVKGRFTISRDNAKNTVYLQMNSLKPEDTAVFYCAADPLSGYDYWGQGTQVTVSS	high polyreactivity
QVQLVESGGGLVQAGGSLRLSCAASGRIFKNNAMGWYRQAPGKERELVAVISGSGGSTYADSVKGRFTISRDNAKNTVYLQLNSLKPADTAVYYCAASRYYRIWYSLLQGYDYWGQGTQVTVSS	high polyreactivity
QVQLVESGGGLVQAGGSLRLSCAASGRIFKNYVMGWYRQAPGKERELVAAITYSGGSTRYADSVKGRFTISRDNAKNTVYLQMNSLKPEDTAVYYCAASRTYYRTYTFYYWGQGTQVTVSS	high polyreactivity
QVQLVESGGGLVQAGGSLRLSCAASGRIFKPNAMGWYRQAPVKEREFVARITRNTGSTYYADSVKGRFTISRDNAKNTVYLQMNSLKPEDTAVYYCAAGAPSYYYYWGQGTQVTVSS	high polyreactivity
QVQLVESGGGLVQAGGSLRLSCAASGRIFKPYVMGWYRQAPGKERELGAAISWGGGRTYYADSVKGRFTISRDNAKNTVYLQMNSLKPEDTAVYYCAAPRRFDYDWGQGTQVTVSS	low polyreactivity
QVQLVESGGGLVQAGGSLRLSCAASGRIFKPYVMGWYRQAPGKERELVAAITRGGSTNYADSVKGRFTISRDNAKNTVYLQMNSLKPEDTAVYDCAVYYYGTWGWDDYWGQGTQVTVSS	high polyreactivity
QVQLVESGGGLVQAGGSLRLSCAASGRIFKQYTMGWYRQAPGKERELVAAITSSGAGTFYADSVKGRFTISRDNAKNTVYLQMNSLKPEDTAVDYCAAAYYYASRMDYWGQGTQVTVSS	high polyreactivity
QVQLVESGGGLVQAGGSLRLSCAASGRIFKRNTMGWYRQAPGKERELVAAITYSGITYYADSVKGRFTISRDNAKNTVYLQMNSLKPEDTAVYYCAKVLYPIGSPRFEYWGQGTQVTVSS	low polyreactivity
QVQLVESGGGLVQAGGSLRLSCAASGRIFKSNAMGWYRQAPGKERELVASISRSGSTNYADSVKGRFTISRDNAKNTVYLQMNSLKPEDTAVYYCAKDPDAKGGGYDYWGQGTQVTVSS	low polyreactivity
QVQLVESGGGLVQAGGSLRLSCAASGRIFKSNAMGWYRQAPGKERELVASITASGGRTYYADSVKGRFTISRDNAKNTVYLQMNSLKPEDTAVYYCAAGRPFSKYGYWGQGTQVTVSS	high polyreactivity
QVQLVESGGGLVQAGGSLRLSCAASGRIFKSYAMGWDRQAPGKERELVAAISRSGGRTYYADSVKGRFTISRDNAKNTVYLQMNSLKPEDTAVYYCAATTIVAPYWGQGTQVTVSS	low polyreactivity
QVQLVESGGGLVQAGGSLRLSCAASGRIFKSYVMGWYRQAPGKERELVAAISWSGGTYYADSVMGRFTNSRDNAKNTVYLQMNCLKPEDTAVYYCAAYYLGSYNPLDYWGQGTQVTVSS	high polyreactivity
QVQLVESGGGLVQAGGSLRLSCAASGRIFKTNAMGWYRQAPGKERELVAGINSSDGSTYYADSVKGRFTISRDIEKNTVYLQMNSLKPEDTAVYYCAAVRYYWGQGTQVTVSS	low polyreactivity
QVQLVESGGGLVQAGGSLRLSCAASGRIFKTYAMGWYRQAPGKERELVAAISIRGGSTYYAESVKGRFTISRDNAKNTVYLQMNSLKPEDTAVYYCNALYGRQIVDYDYWGQGTQVTVSS	low polyreactivity
QVQLVESGGGLVQAGGSLRLSCAASGRIFKWNAMGWYRQAPGKDRELVAAINLSTRSTYYADSVKGRFTISRDNAKNTVYLEMHSLKTVDTAVYYCAAVTYANYYYDAYYYWGQGSQVTVSS	high polyreactivity
QVQLVESGGGLVQAGGSLRLSCAASGRIFKWYAMGWSRQAPGKEWEFVAGISGSAGRTYYADSVKGRCTISRDNAKNTVYLQMNSLKPEDTAVYYCAAVYYSSLYDYWGQGTQVTVSS	low polyreactivity
QVQLVESGGGLVQAGGSLRLSCAASGRIFKWYAMGWYRQAPGKERELVAAISRSGGTTYYADSVKGRFTISRDNAKNTVYLQMNSLKPEDTAVYYCATRNIYFSSVDYWGQGTQVTVSS	high polyreactivity
QVQLVESGGGLVQAGGSLRLSCAASGRIFKWYAMGWYRQAPGKVRELVAAISARGGRTYYADSVKGRFTISRDNAKNTVYLQMNSLKPEDTAVYYCATDYVKSDAYKYYYWGQGTQVTVSS	high polyreactivity
QVQLVESGGGLVQAGGSLRLSCAASGRIFKYNAMGWYRQAPGKERELVAAISSSGGSTYYADSVKGRCTISRDNAKNTVYLQMNSLKPEDTAVYYCAARYNSRVYRYDYWGQGTQVTVSS	high polyreactivity
QVQLVESGGGLVQAGGSLRLSCAASGRIFKYYAMGWYRPAPWKKRELVATISVSGGRTYYADSVKGRFTISRDNAKNTVYLQMNSLKPEDTAVYYCAAYSVIRRRVEYGYWGQGTQVTVSS	high polyreactivity
QVQLVESGGGLVQAGGSLRLSCAASGRIFKYYAMGWYRQAPGKERELVAAISTSVGSTYYADSVKGRFTISRDNAKNTVYLQMNSLKPEDTAVYYCNTRKYHYFLGGAAGNYWGQGTQVTVSS	high polyreactivity
